Test in all cases: REVEAL MHC-peptide binding assay
Test [1] deals with HLA-DR4 (human).
The target of test [2] is HLA-DR1 (human).
Test [3] deals with HLA-DR5 (human).
The target in test [4] is HLA-DR2 (human).
The target of test [5] is HLA-DR7 (human).

Take TLGEFLKLDRERAKN (peptide, from a related filing) [BIR-002]: the Relative Binding Score (% compared to the positive control) in test [1] was determined as 6.12; in test [2] it was 40.1; in test [3], 104; in test [4] it was 0.05; in test [5], 0.27.

As to TFSYVDPVITSISPKYG (peptide, from a related filing) [MET-005], the Relative Binding Score (% compared to the positive control) in test [1] is 5.89; in test [2], 0.87; in test [3], 0.12; in test [4], 0.28; in test [5], 3.69.

The values are drawn from patent US20170319675A1.
